According to paper PMC8294587, “Intrinsic differences in the mechanisms of Tie2 binding to angiopoietins exploited by directed evolution to create an Ang2-selective ligand trap” (The Journal of Biological Chemistry, 2021):

T1: Angiopoietin-1 (UniProt Q15389 16-498)
T1 construct: recombinant Ang1; the residue numbers printed for Ang1 (Gln415, Asp450, Leu471, Tyr478) come from the cited structure 4K0V; also called Ang1; source: recombinant
T1 sequence (looked up): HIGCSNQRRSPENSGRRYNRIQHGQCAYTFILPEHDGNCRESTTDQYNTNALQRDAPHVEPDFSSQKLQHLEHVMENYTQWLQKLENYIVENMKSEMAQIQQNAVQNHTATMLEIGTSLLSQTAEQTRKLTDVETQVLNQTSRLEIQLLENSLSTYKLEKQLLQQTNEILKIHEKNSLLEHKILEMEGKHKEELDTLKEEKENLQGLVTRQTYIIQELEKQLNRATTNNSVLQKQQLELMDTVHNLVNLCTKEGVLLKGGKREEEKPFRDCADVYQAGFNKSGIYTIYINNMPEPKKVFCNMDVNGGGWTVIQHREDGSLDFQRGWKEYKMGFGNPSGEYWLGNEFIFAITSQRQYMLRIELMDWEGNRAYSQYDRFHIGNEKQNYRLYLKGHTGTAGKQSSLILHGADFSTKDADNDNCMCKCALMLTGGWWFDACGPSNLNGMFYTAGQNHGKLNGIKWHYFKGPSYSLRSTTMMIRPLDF

T2: Angiopoietin-2 (UniProt O15123 19-496)
T2 construct: recombinant Ang2; the residue numbers printed for Ang2 (Asp448, Phe469, Ser480) come from the cited structure 2GY7; also called Ang2; source: recombinant
T2 sequence (looked up): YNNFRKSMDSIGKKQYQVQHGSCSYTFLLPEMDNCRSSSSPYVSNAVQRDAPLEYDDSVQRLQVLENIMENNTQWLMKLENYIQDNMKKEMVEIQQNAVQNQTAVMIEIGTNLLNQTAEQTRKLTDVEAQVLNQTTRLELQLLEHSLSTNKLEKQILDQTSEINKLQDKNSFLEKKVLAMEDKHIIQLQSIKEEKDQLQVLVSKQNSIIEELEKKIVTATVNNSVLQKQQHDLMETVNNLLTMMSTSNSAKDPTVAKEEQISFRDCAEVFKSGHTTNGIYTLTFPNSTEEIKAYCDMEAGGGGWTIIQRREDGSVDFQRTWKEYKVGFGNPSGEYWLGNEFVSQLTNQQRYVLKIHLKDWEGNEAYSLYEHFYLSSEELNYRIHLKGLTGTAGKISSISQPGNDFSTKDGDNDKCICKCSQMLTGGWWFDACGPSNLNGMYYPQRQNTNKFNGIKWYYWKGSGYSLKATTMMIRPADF


Key:
Angiopoietin-1 = target: T1, Angiopoietin-1; assay: ELISA; recombinant Ang1 or Ang2 immobilised on Maxisorp plates, blocked with TBS, 0.1% Triton-X100, 5% milk powder; Tie2 ectodomain proteins bound for 1 h; detected with anti-Tie2 ectodomain antibodies; EC50 = concentration of ectodomain for 50% of maximal binding; settings: both partners purified
Angiopoietin-2 = target: T2, Angiopoietin-2; assay: as above; settings: both partners purified

Binder	binding result (Angiopoietin-1)	binding result (Angiopoietin-2)	EC50 (Angiopoietin-2)
Tie2 ectodomain-Fc Arg167Ala/His168Ala (Fc fusion, human, UniProt Q02763 23-442, looked up, signal peptide in the construct; Tie2 ectodomain, human, residues 1-442; also called Arg167Ala/His168Ala Tie2 ectodomain mutant; double substitution; source: Hek293, transfected, purified from culture medium (nickel chromatography); not shown: Fc (fragment of human Fc immunoglobulin domain, after a GS4 linker), C-terminal, kept) AMDLILINSLPLVSDAETSLTCIASGWRPHEPITIGRDFEALMNQHQDPLEVTQDVTREWAKKVVWKREKASKINGAYFCEGRVRGEAIRIRTMKMRQQASFLPATLTMTVDKGDNVNISFKKVLIKEEDAVIYKNGSFIHSVPAAEVPDILEVHLPHAQPQDAGVYSARYIGGNLFTSAFTRLIVRRCEAQKWGPECNHLCTACMNNGVCHEDTGECICPPGFMGRTCEKACELHTFGRTCKERCSGQEGCKSYVFCLPDPYGCSCATGWKGLQCNEACHPGFYGPDCKLRCSCNNGEMCDRFQGCLCSPGWQGLQCEREGIQRMTPKIVDLPDHIEVNSGKFNPICKASGWPLPTNEEMTLVKPDGTVLHPKDFNHTDHFSVAIFTIHRILPPDSGVWVCSVNTVAGMVEKPFNISVK	binds	binds	
R5 Tie2 ectodomain-Fc with Ser171 reverted back to Pro (Fc fusion, human, UniProt Q02763 23-442, looked up, signal peptide in the construct; Tie2 ectodomain, human, residues 1-442; also called evolved ectodomain in which Ser171 was reverted back to Pro; source: Hek293, transfected, purified from culture medium (nickel chromatography); not shown: Fc (fragment of human Fc immunoglobulin domain, after a GS4 linker), C-terminal, kept) AMDLILINSLPLVSDAETSLTCIASGWRPHEPITIGRDFEALMNQHQDPLEVTQDVTREWAKKVVWKREKASKINGAYFCEGRVRGEAIRIRTMKMRQQASFLPATLTMTVDKGDNVNISFKKVLIKEEDAVIYKNGSIIHLVPEVPDILEVHLPHAQPQDAGVYSARYIGGNLFTSAFTRLIVRRCEAQKWGPECNHLCTACMNNGVCHEDTGECICPPGFMGRTCEKACELHTFGRTCKERCSGQEGCKSYVFCLPDPYGCSCATGWKGLQCNEACHPGFYGPDCKLRCSCNNGEMCDRFQGCLCSPGWQGLQCEREGIQRMTPKIVDLPDHIEVNSGKFNPICKASGWPLPTNEEMTLVKPDGTVLHPKDFNHTDHFSVAIFTIHRILPPDSGVWVCSVNTVAGMVEKPFNISVK		binds	
monomeric wild-type Tie2 ectodomain (domain or fragment, human, UniProt Q02763 23-748, looked up, wild-type Tie2 ectodomain, monomeric form; also called Wt monomer; monomeric Tie2) AMDLILINSLPLVSDAETSLTCIASGWRPHEPITIGRDFEALMNQHQDPLEVTQDVTREWAKKVVWKREKASKINGAYFCEGRVRGEAIRIRTMKMRQQASFLPATLTMTVDKGDNVNISFKKVLIKEEDAVIYKNGSFIHSVPRHEVPDILEVHLPHAQPQDAGVYSARYIGGNLFTSAFTRLIVRRCEAQKWGPECNHLCTACMNNGVCHEDTGECICPPGFMGRTCEKACELHTFGRTCKERCSGQEGCKSYVFCLPDPYGCSCATGWKGLQCNEACHPGFYGPDCKLRCSCNNGEMCDRFQGCLCSPGWQGLQCEREGIQRMTPKIVDLPDHIEVNSGKFNPICKASGWPLPTNEEMTLVKPDGTVLHPKDFNHTDHFSVAIFTIHRILPPDSGVWVCSVNTVAGMVEKPFNISVKVLPKPLNAPNVIDTGHNFAVINISSEPYFGDGPIKSKKLLYKPVNHYEAWQHIQVTNEIVTLNYLEPRTEYELCVQLVRRGEGGEGHPGPVRRFTTASIGLPPPRGLNLLPKSQTTLNLTWQPIFPSSEDDFYVEVERRSVQKSDQQNIKVPGNLTSVLLNNLHPREQYVVRARVNTKAQGEWSEDLTAWTLSDILPPQPENIKISNITHSSAVISWTILDGYSISSITIRYKVQGKNEDQHVDVKIKNATITQYQLKGLEPETAYQVDIFAENNIGSSNPAFSHELVTLPESQAPADLGGGKMLL			22.7 nM
